Data published in article PMC3562662.

Substrate: O=C(O)/C=C/c1ccc(O)c(O)c1
Assay: radiometric methyltransferase assay, scintillation counting, nonlinear Michaelis-Menten fit
Format: biochemical, Brachypodium distachyon
Details: co-substrate S-[methyl-14C]-adenosyl-L-methionine plus unlabeled SAM, 0.1 M Tris-HCl pH 7.5, 30°C, 20 min, methods heading b55 names BdCOMT1

B1: BdCOMT4 (Brachypodium distachyon) (protein)
chain: MGSTAADMAATADEEACMFALQLASSSILPMTLKNAIELGLLDTLVQASGKSLTPAEVAAKLPSSSNPAAPDMVDRMLRLLASYGVVSCAVEEGENGKLSRRYAAAPVCKWLTPNEDGVSMAALALMNQDKVLMESWYYLKDAVLDGGIPFNKAYGMSAFEYHGTDPRFNRVFNEGMKNHSIIITKKLLDLYPGFEGLGTLVDVGGGVGATVGAIVARHPAIKGINFDLPHVISEGIPFPGVTHVGGDMFQKVPSGDAILMKWILHDWSDAHCATLLKNCYDALPAHGKVVIVECILPVNPEATPKAQGVFHVDMIMLAHNPGGKERYEREFEELARGAGFTGVKATYIYANAWAIEFTK
notes: full-length cDNA (from Bd21-3 plants) in pQE-T7-1, NdeI/XhoI, His-tagged; primer adds Met-Lys-Gln before native Met; expressed in E. coli, Ni-NTA purified
**Q.** B1 was tested. Which Km did it give?
**A.** The Km was 187 µM.
